The record followed here is patent US20090192048A1, “METHOD OF PRODUCING A […] AGENT FOR BINDING A LIGAND” (priority 2005, published 2009).

Ends that are not written are not given here.

Holding throughout (type): physicochemical
A short description of data set [1]: Retention of peptides 2DOS-1 to 2DOS-16 on a hydrophobic surface (polypropylene microtitre plate wells), water wash. Conditions: 400V scan; for Initial fluorescence (×10^3): 100 μl of 10 μM peptide before drying and washing; for Recovered fluorescence (×10^3): dried, washed ten times with 250 μl water, resuspended. How it is done: The retention of peptides 2DOS-1 to 2DOS-16 on a hydrophobic surface (the wells of a polypropylene microtitre plate) was then investigated.
(§1) 10 mM tris-HCl (pH 8.0) in 50% (v/v) aqueous acetonitrile was used as the solvent for the peptides and for TAMRA.
100 μl aliquots of 10 μM peptides 2DOS-1 to 2DOS-16 and 10 μM TAMRA were placed in the wells of a Costar microtitre plate as shown in FIG. 13:
The microtitre plate was imaged at 200 μm resolution on a Typhoon Trio Plus variable mode imager (Amersham Biosciences) with the green (532 nm) laser and the 580 BP 30 filter at the PMT voltages indicated below and at normal sensitivity. The scan height was set at +3 mm and the sample was pressed during scanning.
The peptides were allowed to evaporate to dryness overnight in the dark and the microtitre plate was again scanned as described above.
The wells were then washed ten times with 250 μl of water.
The residual surface-bound peptides were finally resuspended in 100 μl of 10 mM tris-HCl (pH 8.0) in 50% (v/v) aqueous acetonitrile and the microtitre plate was again scanned as described above.
(§2) The fluorescence images were analysed using ImageQuant TL v2003.03 (Amersham Biosciences).
Quantification data (using the data from the 400V scan) is given in Table 2 and shown graphically in FIG. 15.

Data set [2] in a line: Retention of peptides in V-bottomed polypropylene wells. Conditions: V-bottom wells, 500V scan; for Untreated fluorescence: unwashed; for Retained fluorescence: washed 15 minutes in 1 M NaCl in 10 mM tris-HCl (pH 8.0). How it is done:
(§3) The retention of peptides 2DOS-1 to 2DOS-16 (see above) on polypropylene wells of different geometries was investigated:
as §1
(§4) 1 μl aliquots of 10 μM peptides 2DOS-1 to 2DOS-16 and 10 μM TAMRA were pipetted into the wells of a Costar V-bottomed polypropylene microtitre plate and a Greiner flat-bottomed polypropylene microtitre plate according to the following scheme as shown in FIG. 22:
(§5) The peptide samples were allowed to evaporate to dryness in the dark.
(§6) The peptide samples in the top two rows of the microtitre plates were then incubated for 15′ minutes at room temperature in 250 μl of 1 M NaCl in 10 mM tris-HCl (pH 8.0).
(§7) After incubation, the wash buffer was pipetted up and down eight times in the well before removing the supernatant.
(§8) The washed and untreated peptide samples were then resuspended in 50 μl of 10 mM tris-HCl (pH 8.0) in 50% (v/v) aqueous acetonitrile.
(§9) The microtitre plates were imaged at 200 μm resolution on a Typhoon Trio Plus variable mode imager (Amersham Biosciences) with the green (532 nm) laser and the 580 BP 30 filter at the PMT voltages indicated below and at normal sensitivity. The scan height was set at the platen and the sample was pressed during, scanning.
as §2

Data set [3] is described as follows: Retention of peptides in flat-bottomed polypropylene wells. Conditions: flat-bottom wells, 500V scan; for Untreated fluorescence: unwashed; for Retained fluorescence: washed 15 minutes in 1 M NaCl in 10 mM tris-HCl (pH 8.0). How it is done: as §3, §1, §4, §5, §6, §7, §8, §9, §2
Data set [4] can be described thus: Retention of peptides on Costar polypropylene V-bottom wells. The following applies: 400V scan; for Untreated fluorescence: unwashed; for Retained fluorescence: washed 15 minutes in 1 M NaCl in 10 mM tris-HCl (pH 8.0). How it is done:
(§10) The retention of peptides 2DOS-1 to 2DOS-16 (see above) on polypropylene and polystyrene surfaces was compared:
(§11) 5 mM tris-HCl (pH 8.0) in 75% (v/v) aqueous acetonitrile was used as the solvent for the peptides and for TAMRA.
(§12) 20 μl aliquots of 5 μM peptides 2DOS-1 to 2DOS-16 and 5 μM TAMRA were pipetted into the wells of a Costar V-bottomed polypropylene microtitre plate, a Greiner V-bottomed polypropylene microtitre plate, and a Greiner V-bottomed polystyrene microtitre plate according to the scheme shown in FIG. 26:
as §5
(§13) The peptide samples in the top two rows of the microtitre plates were then incubated for 15 minutes at room temperature in 250 μl of 1 M NaCl in 10 mM tris-HCl (pH 8.0).
as §7, §8
(§14) The microtitre plates were imaged at 200 μm resolution on a Typhoon Trio Plus variable mode imager (Amersham Biosciences) with the green (532 nm) laser and the 580 BP 30 filter at the PMT voltages indicated below and at normal sensitivity. The scan height was set at +3 mm and the sample was pressed during scanning.
as §2

Data set [5] can be described thus: Retention of peptides on Greiner polypropylene V-bottom wells. Conditions: 400V scan; for Untreated fluorescence: unwashed; for Retained fluorescence: washed 15 minutes in 1 M NaCl in 10 mM tris-HCl (pH 8.0). How it is done: as §10, §11, §12, §5, §13, §7, §8, §14, §2
Data set [6] in a line: Retention of peptides on Greiner polystyrene V-bottom wells. The following applies: 400V scan; for Untreated fluorescence: unwashed; for Retained fluorescence: washed 15 minutes in 1 M NaCl in 10 mM tris-HCl (pH 8.0). How it is done: as §10, §11, §12, §5, §13, §7, §8, §14, §2

Regarding “N-TAMRA-Ser-Asp- Ser-Ala-Ser-Ser- Ser-Lys-Ser-C ({TAMRA}-SDSASSSKS) [Peptide 2DOS-3]”, the “Initial fluorescence (×10^3)” value in data set [1] is listed as 32,913 ×10^3. In addition, the “Recovered fluorescence (×10^3)” value in data set [1] is 8 ×10^3. For the same substance, the Percent retention in data set [2] came to 22%; in data set [3], 20%; in data set [4] it was 12%; in data set [5], 10%; in data set [6] it was 5%. Moreover, the Untreated fluorescence is recorded as 9,020,171 in data set [2]; 14,152,875 in data set [3]; 5,660,618 in data set [4]; 3,583,352 in data set [5]; 744,747 in data set [6]. For the same substance, the Retained fluorescence in data set [2] is 1,951,694; in data set [3], 2,836,015; in data set [4], 673,940; in data set [5], 342,889; in data set [6], 37,388.
Regarding “N-TAMRA-Asp-Ser- Ala-Ser-Ser-Ser- Lys-C ({TAMRA}-DSASSSK) [Peptide 2DOS-7]”, in data set [1], the “Initial fluorescence (×10^3)” value is reported as 29,134 ×10^3. In addition, in data set [1], the “Recovered fluorescence (×10^3)” value is 0 ×10^3. In addition, the Percent retention in data set [2] worked out at 9%; in data set [3] it was 13%; in data set [4] it was 6%; in data set [5], 5%; in data set [6], 2%. Besides, the Untreated fluorescence is reported as 8,674,544 in data set [2]; 10,189,473 in data set [3]; 5,139,578 in data set [4]; 3,751,280 in data set [5]; 706,200 in data set [6]. Moreover, the Retained fluorescence in data set [2] was 746,596; in data set [3], 1,303,195; in data set [4], 326,328; in data set [5] it was 205,430; in data set [6], 15,766.
With “N-TAMRA-Phe-Asp- Phe-Asp-Phe-Asp- Phe-Asp-Phe-C ({TAMRA}-FDFDFDFDF) [Peptide 2DOS-10]”, in data set [1], the “Initial fluorescence (×10^3)” value is on record as 28,479 ×10^3. For the same substance, the “Recovered fluorescence (×10^3)” value in data set [1] was 2,884 ×10^3. Besides, the Percent retention in data set [2] turned out to be 33%; in data set [3] it was 39%; in data set [4], 24%; in data set [5] it was 22%; in data set [6], 17%. In addition, the Untreated fluorescence in data set [2] is 8,445,090; in data set [3], 13,661,609; in data set [4], 6,043,214; in data set [5] it was 3,043,118; in data set [6], 602,771. For the same substance, the Retained fluorescence in data set [2] is listed as 2,773,876; in data set [3] it was 5,353,630; in data set [4], 1,439,375; in data set [5] it was 654,623; in data set [6], 100,265.
For the substance “N-TAMRA-Ser-Asp- Ser-Asp-Ser-Asp- Ser-Asp-Ser-C ({TAMRA}-SDSDSDSDS) [Peptide 2DOS-11]”, in data set [1], the “Initial fluorescence (×10^3)” value was 26,860 ×10^3. Also, the “Recovered fluorescence (×10^3)” value in data set [1] was 0 ×10^3. Further, the Percent retention is on record as 2% in data set [2]; 3% in data set [3]; 2% in data set [4]; 2% in data set [5]; 1% in data set [6]. Besides, the Untreated fluorescence was 9,705,293 in data set [2]; 13,960,552 in data set [3]; 5,327,435 in data set [4]; 3,510,896 in data set [5]; 675,269 in data set [6]. The Retained fluorescence in data set [2] was 192,272; in data set [3], 476,318; in data set [4] it was 102,040; in data set [5], 86,818; in data set [6], 7,365.
As to “N-TAMRA-Asp-Ser- Asp-Ser-Asp-Ser- Asp-C ({TAMRA}-DSDSDSD) [Peptide 2DOS-15]”, in data set [1], the “Initial fluorescence (×10^3)” value is given as 30,845 ×10^3. In addition, the “Recovered fluorescence (×10^3)” value in data set [1] is on record as 2 ×10^3. Besides, the Percent retention in data set [2], in data set [3], in data set [4], in data set [5] and in data set [6] was 1% throughout. Also, the Untreated fluorescence in data set [2] is recorded as 10,493,100; in data set [3], 15,290,885; in data set [4] it was 6,488,130; in data set [5], 4,771,265; in data set [6], 868,334. For the same substance, the Retained fluorescence in data set [2] is recorded as 122,851; in data set [3], 104,523; in data set [4], 50,584; in data set [5], 65,142; in data set [6], 5,116.
For the substance “N-TAMRA-Asp- Norleu- Asp-Norleu-Asp- Norleu-Asp-C [Peptide 2DOS-13]”, the “Initial fluorescence (×10^3)” value in data set [1] was 26,181 ×10^3. Further, the “Recovered fluorescence (×10^3)” value in data set [1] is on record as 25 ×10^3. Moreover, the Percent retention in data set [2] was 11%; in data set [3] it was 17%; in data set [4], 8%; in data set [5] it was 10%; in data set [6] it was 9%. For the same substance, the Untreated fluorescence in data set [2] is 7,623,227; in data set [3], 12,935,739; in data set [4], 4,886,617; in data set [5], 3,635,229; in data set [6], 708,162. Further, the Retained fluorescence in data set [2] was 806,022; in data set [3] it was 2,162,164; in data set [4], 387,738; in data set [5], 378,287; in data set [6] it was 62,590.
For “N-TAMPA-Norleu- Asp-Norleu-Asp- Norleu-Asp-Norleu- Asp-Norleu-C [Peptide 2DOS-9]”, in data set [1], the “Initial fluorescence (×10^3)” value is on record as 34,587 ×10^3. Besides, the “Recovered fluorescence (×10^3)” value in data set [1] is 2,382 ×10^3. The Percent retention in data set [2] was found to be 14%; in data set [3], 16%; in data set [4], 17%; in data set [5], 12%; in data set [6], 10%. The Untreated fluorescence is recorded as 11,662,691 in data set [2]; 13,456,698 in data set [3]; 7,102,251 in data set [4]; 3,621,913 in data set [5]; 626,304 in data set [6]. Moreover, the Retained fluorescence is 1,608,482 in data set [2]; 2,148,849 in data set [3]; 1,184,648 in data set [4]; 439,252 in data set [5]; 62,023 in data set [6].
